B1: SOAT1 (parent)
chain: PSNGRIDIKQLIAKKIKLTAEAEE

Variants of: B1
Test: protein stability index of a GFP-peptide fusion (GPS, HEK-293T) (PSI 1-6); higher = more stable
Details: c terminus: a fixed tail appended
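Note: lentivirally expressed fusions sorted by FACS into six bins by GFP to DsRed ratio, PSI derived from sequencing read proportions per bin multiplied by bin number.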

First: PSNGRIDIKQLIAKKIKLTAEAME [E23M]
Second: PSNGRIDIKQLIAKKIKLTAEAPE [E23P]
The protein stability index of the first is lower: 2.06 for the first, 2.88 for the second.

First: PSNGRIDIKQLIAKKIKLTAEANE [E23N]
Second: PSNGRIDIKQLIAKKIKLTAEAVE [E23V]
The protein stability index of the first is higher: 2.93 for the first, 2.3 for the second.

Going from PSNGRIDIKQLIAKKIKLTAEATE [E23T] to PSNGRIDIKQLIAKKIKLTAEACE [E23C], the protein stability index falls from 3.13 to 2.33.

First: PSNGRIDIKQLIAKKIKLTAEAGE [E23G]
Second: PSNGRIDIKQLIAKKIKLTAEARE [E23R]
The protein stability index of the first is higher: 2.98 for the first, 2.74 for the second.

Going from PSNGRIDIKQLIAKKIKLTAEAQE [E23Q] to PSNGRIDIKQLIAKKIKLTAEAKE [E23K], the protein stability index rises from 2.35 to 3.15.

Compared with PSNGRIDIKQLIAKKIKLTAEAWE [E23W], PSNGRIDIKQLIAKKIKLTAEADE [E23D] is higher in protein stability index: 2.31 for the first, 3.3 for the second.

Compared with PSNGRIDIKQLIAKKIKLTAEAIE [E23I], PSNGRIDIKQLIAKKIKLTAEAHE [E23H] is lower in protein stability index: 2.69 for the first, 2.67 for the second.

Compared with PSNGRIDIKQLIAKKIKLTAEALE [E23L], PSNGRIDIKQLIAKKIKLTAEAAE [E23A] is higher in protein stability index: 2.12 for the first, 2.66 for the second.

Going from PSNGRIDIKQLIAKKIKLTAEASE [E23S] to PSNGRIDIKQLIAKKIKLTAEAFE [E23F], the protein stability index falls from 2.51 to 1.75.

Going from PSNGRIDIKQLIAKKIKLTAEAYE [E23Y] to PSNGRIDIKQLIAKKIKLTAKAEE [E21K], the protein stability index rises from 2.22 to 2.51.

Compared with PSNGRIDIKQLIAKKIKLTAFAEE [E21F], PSNGRIDIKQLIAKKIKLTAPAEE [E21P] is higher in protein stability index: 1.97 for the first, 2.92 for the second.

Compared with PSNGRIDIKQLIAKKIKLTALAEE [E21L], PSNGRIDIKQLIAKKIKLTAIAEE [E21I] is higher in protein stability index: 2.96 for the first, 3.19 for the second.

First: PSNGRIDIKQLIAKKIKLTAMAEE [E21M]
Second: PSNGRIDIKQLIAKKIKLTATAEE [E21T]
The protein stability index of the first is lower: 2.4 for the first, 3.15 for the second.

Compared with PSNGRIDIKQLIAKKIKLTAHAEE [E21H], PSNGRIDIKQLIAKKIKLTAGAEE [E21G] is lower in protein stability index: 3.13 for the first, 2.63 for the second.

Compared with PSNGRIDIKQLIAKKIKLTAYAEE [E21Y], PSNGRIDIKQLIAKKIKLTANAEE [E21N] is higher in protein stability index: 2.21 for the first, 3.13 for the second.

Compared with PSNGRIDIKQLIAKKIKLTARAEE [E21R], PSNGRIDIKQLIAKKIKLTACAEE [E21C] is lower in protein stability index: 2.95 for the first, 2.78 for the second.

Going from PSNGRIDIKQLIAKKIKLTAAAEE [E21A] to PSNGRIDIKQLIAKKIKLTASAEE [E21S], the protein stability index rises from 2.74 to 3.02.

First: PSNGRIDIKQLIAKKIKLTAWAEE [E21W]
Second: PSNGRIDIKQLIAKKIKLTAVAEE [E21V]
The protein stability index of the first is lower: 2.12 for the first, 2.59 for the second.

First: PSNGRIDIKQLIAKKIKLTAQAEE [E21Q]
Second: PSNGRIDIKQLIAKKIKLTADAEE [E21D]
The protein stability index of the first is lower: 3.05 for the first, 3.43 for the second.

First: PSNGRIDIKQLIAKKIKLTHEAEE [A20H]
Second: PSNGRIDIKQLIAKKIKLTGEAEE [A20G]
The protein stability index of the first is higher: 3.66 for the first, 3.42 for the second.

First: PSNGRIDIKQLIAKKIKLTTEAEE [A20T]
Second: PSNGRIDIKQLIAKKIKLTNEAEE [A20N]
The protein stability index of the first is higher: 3.47 for the first, 3.19 for the second.

First: PSNGRIDIKQLIAKKIKLTREAEE [A20R]
Second: PSNGRIDIKQLIAKKIKLTVEAEE [A20V]
The protein stability index of the first is higher: 3.07 for the first, 2.8 for the second.

Going from PSNGRIDIKQLIAKKIKLTFEAEE [A20F] to PSNGRIDIKQLIAKKIKLTLEAEE [A20L], the protein stability index rises from 2.51 to 3.1.

First: PSNGRIDIKQLIAKKIKLTIEAEE [A20I]
Second: PSNGRIDIKQLIAKKIKLTMEAEE [A20M]
The protein stability index of the first is lower: 2.7 for the first, 2.71 for the second.

Going from PSNGRIDIKQLIAKKIKLTEEAEE [A20E] to PSNGRIDIKQLIAKKIKLTSEAEE [A20S], the protein stability index falls from 3.88 to 3.61.

First: PSNGRIDIKQLIAKKIKLTKEAEE [A20K]
Second: PSNGRIDIKQLIAKKIKLTPEAEE [A20P]
The protein stability index of the first is lower: 3.47 for the first, 3.78 for the second.

PSNGRIDIKQLIAKKIKLTQEAEE [A20Q] and PSNGRIDIKQLIAKKIKLTCEAEE [A20C] are the same in protein stability index: 3.44 for the first, 3.44 for the second.

Compared with PSNGRIDIKQLIAKKIKLTWEAEE [A20W], PSNGRIDIKQLIAKKIKLTDEAEE [A20D] is higher in protein stability index: 2.66 for the first, 3.16 for the second.

Compared with PSNGRIDIKQLIAKKIKLTYEAEE [A20Y], PSNGRIDIKQLIAKKIKLTAEAED [E24D] is higher in protein stability index: 2.8 for the first, 3.39 for the second.

First: PSNGRIDIKQLIAKKIKLTAEAEK [E24K]
Second: PSNGRIDIKQLIAKKIKLTAEAEV [E24V]
The protein stability index of the first is higher: 2.98 for the first, 2.48 for the second.

First: PSNGRIDIKQLIAKKIKLTAEAES [E24S]
Second: PSNGRIDIKQLIAKKIKLTAEAEW [E24W]
The protein stability index of the first is higher: 2.73 for the first, 2.44 for the second.

First: PSNGRIDIKQLIAKKIKLTAEAEF [E24F]
Second: PSNGRIDIKQLIAKKIKLTAEAEI [E24I]
The protein stability index of the first is lower: 2.22 for the first, 2.27 for the second.

Going from PSNGRIDIKQLIAKKIKLTAEAEH [E24H] to PSNGRIDIKQLIAKKIKLTAEAEQ [E24Q], the protein stability index rises from 2.94 to 2.95.

Compared with PSNGRIDIKQLIAKKIKLTAEAEA [E24A], PSNGRIDIKQLIAKKIKLTAEAEM [E24M] is lower in protein stability index: 2.78 for the first, 2.27 for the second.

First: PSNGRIDIKQLIAKKIKLTAEAER [E24R]
Second: PSNGRIDIKQLIAKKIKLTAEAEP [E24P]
The protein stability index of the first is lower: 2.79 for the first, 3.24 for the second.

First: PSNGRIDIKQLIAKKIKLTAEAEC [E24C]
Second: PSNGRIDIKQLIAKKIKLTAEAEG [E24G]
The protein stability index of the first is higher: 3.19 for the first, 2.7 for the second.

Going from PSNGRIDIKQLIAKKIKLTAEAEY [E24Y] to PSNGRIDIKQLIAKKIKLTAEAEL [E24L], the protein stability index rises from 2.68 to 3.11.

Going from PSNGRIDIKQLIAKKIKLTAEAET [E24T] to PSNGRIDIKQLIAKKIKLTAEAEN [E24N], the protein stability index falls from 3.44 to 3.07.

First: PSNGRIDIKQLIAKKIKLVAEAEE [T19V]
Second: PSNGRIDIKQLIAKKIKLPAEAEE [T19P]
The protein stability index of the first is lower: 2.75 for the first, 3.4 for the second.

First: PSNGRIDIKQLIAKKIKLWAEAEE [T19W]
Second: PSNGRIDIKQLIAKKIKLNAEAEE [T19N]
The protein stability index of the first is lower: 2.21 for the first, 3.29 for the second.

Compared with PSNGRIDIKQLIAKKIKLEAEAEE [T19E], PSNGRIDIKQLIAKKIKLHAEAEE [T19H] is lower in protein stability index: 3.88 for the first, 3.21 for the second.

First: PSNGRIDIKQLIAKKIKLKAEAEE [T19K]
Second: PSNGRIDIKQLIAKKIKLRAEAEE [T19R]
The protein stability index of the first is lower: 2.52 for the first, 2.73 for the second.

Compared with PSNGRIDIKQLIAKKIKLIAEAEE [T19I], PSNGRIDIKQLIAKKIKLYAEAEE [T19Y] is higher in protein stability index: 2.12 for the first, 2.52 for the second.

Compared with PSNGRIDIKQLIAKKIKLQAEAEE [T19Q], PSNGRIDIKQLIAKKIKLCAEAEE [T19C] is higher in protein stability index: 2.96 for the first, 3.06 for the second.

Compared with PSNGRIDIKQLIAKKIKLDAEAEE [T19D], PSNGRIDIKQLIAKKIKLSAEAEE [T19S] is lower in protein stability index: 4.18 for the first, 2.9 for the second.

Going from PSNGRIDIKQLIAKKIKLFAEAEE [T19F] to PSNGRIDIKQLIAKKIKLGAEAEE [T19G], the protein stability index rises from 1.98 to 3.17.

Compared with PSNGRIDIKQLIAKKIKLLAEAEE [T19L], PSNGRIDIKQLIAKKIKLAAEAEE [T19A] is higher in protein stability index: 2.15 for the first, 3.48 for the second.
